From US20250388702A1 (Dana-Farber, published 2025)

B2: KIR2DS1 (receptor, UniProt Q14954 22-304, looked up)
chain: HEGVHRKPSLLAHPGRLVKSEETVILQCWSDVMFEHFLLHREGMFNDTLRLIGEHHDGVSKANFSISRMKQDLAGTYRCYGSVTHSPYQLSAPSDPLDIVIIGLYEKPSLSAQPGPTVLAGENVTLSCSSRSSYDMYHLSREGEAHERRLPAGTKVNGTFQANFPLGPATHGGTYRCFGSFRDSPYEWSKSSDPLLVSVTGNPSNSWPSPTEPSSETGNPRHLHVLIGTSVVKIPFTILLFFLLHRWCSDKKNAAVMDQEPAGNRTVNSEDSDEQDHQEVSYA
notes: whole, on cells
B3: KIR2DS5 (receptor, UniProt Q14953 22-304, looked up)
chain: HEGFRRKPSLLAHPGPLVKSEETVILQCWSDVMFEHFLLHREGTFNHTLRLIGEHIDGVSKGNFSIGRMTQDLAGTYRCYGSVTHSPYQLSAPSDPLDIVITGLYEKPSLSAQPGPTVLAGESVTLSCSSRSSYDMYHLSREGEAHERRLPAGPKVNRTFQADFPLDPATHGGTYRCFGSFRDSPYEWSKSSDPLLVSVTGNSSNSWPSPTEPSSETGNPRHLHVLIGTSVVKLPFTILLFFLLHRWCSNKKNASVMDQGPAGNRTVNREDSDEQDHQEVSYA
notes: whole, on cells
B4: KIR2DS3 (receptor, UniProt Q14952 22-304, looked up)
chain: HEGFRRKPSLLAHPGRLVKSEETVILQCWSDVMFEHFLLHREGTFNDTLRLIGEHIDGVSKANFSIGRMRQDLAGTYRCYGSVPHSPYQFSAPSDPLDIVITGLYEKPSLSAQPGPTVLAGESVTLSCSSWSSYDMYHLSTEGEAHERRFSAGPKVNGTFQADFPLGPATQGGTYRCFGSFHDSPYEWSKSSDPLLVSVTGNPSNSWPSPTEPSSKTGNPRHLHVLIGTSVVKLPFTILLFFLLHRWCSDKKNASVMDQGPAGNRTVNREDSDEQDHQEVSYA
notes: whole, on cells
B5: KIR2DS2 (receptor, UniProt P43631 22-304, looked up)
chain: HEGVHRKPSLLAHPGPLVKSEETVILQCWSDVRFEHFLLHREGKYKDTLHLIGEHHDGVSKANFSIGPMMQDLAGTYRCYGSVTHSPYQLSAPSDPLDIVITGLYEKPSLSAQPGPTVLAGESVTLSCSSRSSYDMYHLSREGEAHERRFSAGPKVNGTFQADFPLGPATHGGTYRCFGSFRDSPYEWSNSSDPLLVSVTGNPSNSWPSPTEPSSKTGNPRHLHVLIGTSVVKIPFTILLFFLLHRWCSNKKNAAVMDQEPAGNRTVNSEDSDEQDHQEVSYA
notes: whole, on cells

Legend:
KIR2DL4 = target: T1, KIR2DL4 (UniProt Q99706 22-377, limits assumed); test: HEK293 cell microarray
T1 construct: whole, on cells
T1 sequence (Q99706 22-377 limits assumed): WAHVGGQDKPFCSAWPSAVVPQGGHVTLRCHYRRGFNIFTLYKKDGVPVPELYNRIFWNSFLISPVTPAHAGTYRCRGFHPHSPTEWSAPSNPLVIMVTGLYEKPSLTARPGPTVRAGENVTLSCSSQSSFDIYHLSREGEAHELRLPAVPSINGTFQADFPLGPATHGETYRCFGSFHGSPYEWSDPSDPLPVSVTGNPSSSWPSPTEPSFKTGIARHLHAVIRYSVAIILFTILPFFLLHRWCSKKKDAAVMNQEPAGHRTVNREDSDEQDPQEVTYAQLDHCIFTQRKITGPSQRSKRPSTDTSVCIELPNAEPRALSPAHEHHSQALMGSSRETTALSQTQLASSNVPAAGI
Protocol: (§1) Replicate microarray slides expressing a complete KIR family cDNA panel were fixed and blocked with buffer containing PBS/0.5% BSA and incubated for 1 hour at room temperature with individual KIR3DL3 mAb hybridoma supernatants at 1:5, 1:25 and 1:250 dilutions in PBS/0.1% BSA. Cell arrays were washed with PBS and incubated for 1 hour at room temperature in PBS/0.1% BSA containing AF647-conjugated goat anti-mouse IgG (H+L) (Life Technologies, A21235). Slides were washed with PBS, dried, and imaged for ZsGreen1 and AF647 fluorescence.
as §1, with “In Table 4, replicate” for “Replicate”, “the” for “a complete”, “panel (as in FIG. 1A, FIG. 2B, and FIG. 2C)” for “panel”

KIR3DL2 = target: T2, KIR3DL2 (UniProt P43630 22-455, limits assumed); test: HEK293 cell microarray
T2 construct: whole, on cells
T2 sequence (P43630 22-455 limits assumed): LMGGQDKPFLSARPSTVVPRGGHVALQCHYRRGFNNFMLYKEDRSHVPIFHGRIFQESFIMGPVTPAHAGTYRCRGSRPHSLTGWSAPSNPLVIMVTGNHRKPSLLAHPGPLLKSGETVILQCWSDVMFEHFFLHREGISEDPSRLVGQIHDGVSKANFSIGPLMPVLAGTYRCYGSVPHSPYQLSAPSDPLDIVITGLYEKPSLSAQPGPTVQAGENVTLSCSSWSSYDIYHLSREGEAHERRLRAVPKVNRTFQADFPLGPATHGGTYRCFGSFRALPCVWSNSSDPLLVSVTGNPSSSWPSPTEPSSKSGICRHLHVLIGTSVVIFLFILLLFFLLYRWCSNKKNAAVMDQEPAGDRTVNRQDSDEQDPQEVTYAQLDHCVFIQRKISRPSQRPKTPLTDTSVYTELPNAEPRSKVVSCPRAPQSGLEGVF
Protocol: as §1
as §1, with “In Table 4, replicate” for “Replicate”, “the” for “a complete”, “panel (as in FIG. 1A, FIG. 2B, and FIG. 2C)” for “panel”

KIR2DS5 = target: B3; test: HEK293 cell microarray
Protocol: as §1
as §1, with “In Table 4, replicate” for “Replicate”, “the” for “a complete”, “panel (as in FIG. 1A, FIG. 2B, and FIG. 2C)” for “panel”

KIR2DS2 = target: B5; test: HEK293 cell microarray
Protocol: as §1
as §1, with “In Table 4, replicate” for “Replicate”, “the” for “a complete”, “panel (as in FIG. 1A, FIG. 2B, and FIG. 2C)” for “panel”

KIR2DS1 = target: B2; test: HEK293 cell microarray
Protocol: as §1
as §1, with “In Table 4, replicate” for “Replicate”, “the” for “a complete”, “panel (as in FIG. 1A, FIG. 2B, and FIG. 2C)” for “panel”

KIR3DL1 = target: T3, KIR3DL1 (UniProt P43629 22-444, limits assumed); test: HEK293 cell microarray
T3 construct: whole, on cells
T3 sequence (P43629 22-444 limits assumed): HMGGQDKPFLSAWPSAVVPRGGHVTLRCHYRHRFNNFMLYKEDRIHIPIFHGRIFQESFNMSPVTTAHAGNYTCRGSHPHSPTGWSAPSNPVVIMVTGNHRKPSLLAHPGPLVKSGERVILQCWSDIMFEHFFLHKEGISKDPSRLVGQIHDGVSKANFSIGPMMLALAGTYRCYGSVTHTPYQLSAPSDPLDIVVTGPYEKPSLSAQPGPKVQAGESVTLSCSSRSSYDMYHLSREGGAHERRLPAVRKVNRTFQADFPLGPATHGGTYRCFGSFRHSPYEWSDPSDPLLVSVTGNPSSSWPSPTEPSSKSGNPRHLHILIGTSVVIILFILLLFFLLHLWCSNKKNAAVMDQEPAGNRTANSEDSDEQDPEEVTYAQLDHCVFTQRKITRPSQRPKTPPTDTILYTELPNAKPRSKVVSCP
Protocol: as §1
as §1, with “In Table 4, replicate” for “Replicate”, “the” for “a complete”, “panel (as in FIG. 1A, FIG. 2B, and FIG. 2C)” for “panel”

KIR3DS1 = target: T4, KIR3DS1 (UniProt Q14943 22-382, limits assumed); test: HEK293 cell microarray
T4 construct: whole, on cells
T4 sequence (Q14943 22-382 limits assumed): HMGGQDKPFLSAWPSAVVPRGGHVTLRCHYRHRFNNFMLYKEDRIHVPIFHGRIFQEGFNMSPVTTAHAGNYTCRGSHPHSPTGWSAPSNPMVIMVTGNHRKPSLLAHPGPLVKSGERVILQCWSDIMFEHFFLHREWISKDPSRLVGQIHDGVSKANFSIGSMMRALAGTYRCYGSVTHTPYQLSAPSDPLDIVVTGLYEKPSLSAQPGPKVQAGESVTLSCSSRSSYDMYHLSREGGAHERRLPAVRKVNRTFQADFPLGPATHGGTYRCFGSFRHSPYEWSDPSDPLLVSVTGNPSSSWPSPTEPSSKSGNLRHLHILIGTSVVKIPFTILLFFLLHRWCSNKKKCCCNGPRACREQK
Protocol: as §1
as §1, with “In Table 4, replicate” for “Replicate”, “the” for “a complete”, “panel (as in FIG. 1A, FIG. 2B, and FIG. 2C)” for “panel”

KIR2DS3 = target: B4; test: HEK293 cell microarray
Protocol: as §1
as §1, with “In Table 4, replicate” for “Replicate”, “the” for “a complete”, “panel (as in FIG. 1A, FIG. 2B, and FIG. 2C)” for “panel”

KIR2DL2 = target: T5, KIR2DL2 (UniProt P43627 22-348, limits assumed); test: HEK293 cell microarray
T5 construct: whole, on cells
T5 sequence (P43627 22-348 limits assumed): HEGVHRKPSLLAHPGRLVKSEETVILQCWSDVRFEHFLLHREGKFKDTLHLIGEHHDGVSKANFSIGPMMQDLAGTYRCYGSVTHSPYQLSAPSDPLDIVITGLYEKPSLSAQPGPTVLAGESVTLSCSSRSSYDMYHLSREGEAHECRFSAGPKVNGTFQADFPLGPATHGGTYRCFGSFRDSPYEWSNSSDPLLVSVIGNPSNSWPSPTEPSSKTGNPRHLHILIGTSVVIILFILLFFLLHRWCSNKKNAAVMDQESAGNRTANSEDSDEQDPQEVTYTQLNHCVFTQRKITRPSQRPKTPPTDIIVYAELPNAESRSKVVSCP
Protocol: as §1
as §1, with “In Table 4, replicate” for “Replicate”, “the” for “a complete”, “panel (as in FIG. 1A, FIG. 2B, and FIG. 2C)” for “panel”

KIR2DL1 = target: T6, KIR2DL1 (UniProt P43626 22-348, limits assumed); test: HEK293 cell microarray
T6 construct: whole, on cells
T6 sequence (P43626 22-348 limits assumed): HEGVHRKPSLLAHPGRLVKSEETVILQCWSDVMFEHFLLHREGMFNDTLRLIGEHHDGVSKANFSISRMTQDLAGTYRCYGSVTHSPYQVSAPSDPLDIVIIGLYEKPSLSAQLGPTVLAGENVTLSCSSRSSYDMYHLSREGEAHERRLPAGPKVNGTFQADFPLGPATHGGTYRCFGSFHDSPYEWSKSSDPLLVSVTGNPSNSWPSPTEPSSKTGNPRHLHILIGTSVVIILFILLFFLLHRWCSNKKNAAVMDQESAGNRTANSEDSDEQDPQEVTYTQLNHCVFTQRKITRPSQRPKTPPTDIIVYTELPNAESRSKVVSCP
Protocol: as §1
as §1, with “In Table 4, replicate” for “Replicate”, “the” for “a complete”, “panel (as in FIG. 1A, FIG. 2B, and FIG. 2C)” for “panel”

KIR2DL3 = target: T7, KIR2DL3 (UniProt P43628 22-341, limits assumed); test: HEK293 cell microarray
T7 construct: whole, on cells
T7 sequence (P43628 22-341 limits assumed): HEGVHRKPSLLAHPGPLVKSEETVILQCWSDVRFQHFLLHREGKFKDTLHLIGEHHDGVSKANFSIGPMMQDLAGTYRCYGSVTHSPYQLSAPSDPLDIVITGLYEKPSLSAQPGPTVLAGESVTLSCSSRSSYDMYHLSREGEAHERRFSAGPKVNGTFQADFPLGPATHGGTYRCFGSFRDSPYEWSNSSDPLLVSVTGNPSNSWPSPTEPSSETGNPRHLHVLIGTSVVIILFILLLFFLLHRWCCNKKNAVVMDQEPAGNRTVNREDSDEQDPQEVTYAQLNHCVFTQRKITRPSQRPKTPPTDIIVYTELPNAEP
Protocol: as §1
as §1, with “In Table 4, replicate” for “Replicate”, “the” for “a complete”, “panel (as in FIG. 1A, FIG. 2B, and FIG. 2C)” for “panel”

[1] = target: T8, Human HHLA2-mIgG2a fusion protein (human; mouse, UniProt Q9UM44 23-344, limits assumed); test: cell microarray on transfected HEK293 cells, HHLA2-mIgG2a probe, AF647 anti-mouse IgG detection
T8 construct: also called HHLA2-Ig; HHLA2-mouse IgG2a; not shown: mutated at IgG2a L235E, E318A, K320A, K322A
T8 sequence: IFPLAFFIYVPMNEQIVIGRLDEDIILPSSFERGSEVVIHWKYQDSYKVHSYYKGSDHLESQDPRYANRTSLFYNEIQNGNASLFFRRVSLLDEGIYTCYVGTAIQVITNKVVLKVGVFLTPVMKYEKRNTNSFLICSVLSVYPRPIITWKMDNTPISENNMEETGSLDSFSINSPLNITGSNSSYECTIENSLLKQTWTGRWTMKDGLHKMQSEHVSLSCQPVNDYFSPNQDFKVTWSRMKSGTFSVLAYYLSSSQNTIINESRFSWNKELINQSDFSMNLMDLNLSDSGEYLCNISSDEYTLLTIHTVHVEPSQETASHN
Protocol: A library of ˜5500 full length cDNA clones covering more than 3,500 different plasma membrane proteins was arrayed in duplicate across 13 microarray slides (“slide sets”). Human HEK293 cells were grown above the cDNA clones and reverse-transfected. An expression vector (pIRES-hEGFR-IRES-ZsGreen1) was spotted in quadruplicate on every slide and was used to ensure that a minimal threshold of transfection efficiency had been achieved or exceeded on every slide.
Two replicate slides were screened for each of the 13 slide sets. Fluorescent images were analyzed and quantitated (for transfection efficiency) using ImageQuant software (GE). A protein ‘hit’ was defined as duplicate spots showing a raised signal compared to background levels. This was achieved by visual inspection using the images gridded on the ImageQuant software.

B1: KIR3DL3 mAb 574.2.1D12.1.6 (antibody, IgG2a, V domains shown)
VH: QVQLQQSGAELVRPGTSVKVSCKASGYAFNNYLIEWVKQRPGQGLEWIGVINPGSGGTNDNEKFRGKATLTADTSSSTAYMQLTSLTSDDSAVYFCARGNYYGTRDWYFDVWGAGTTVTVSS
VL: QIVLTQSPAIMSASLGARVTMTCTASSSVSSSSLHWYQQKPGSSPKLWIYSISSLASGVPARFSGSGSGTSYSLTISSLEAEDAATYYCHQYHRSPPTFGGGTKLEIK
notes: Mouse hybridoma antibody, IgG2a; only variable domains given; also called AVS-3705
B1: no binding (tested: supernatant 1:5, 1:25, 1:250) (KIR2DL4); no binding (tested: supernatant 1:5, 1:25, 1:250) (KIR3DL2); no binding (tested: supernatant 1:5, 1:25, 1:250) (KIR2DS5). B1: no binding (tested: supernatant 1:5, 1:25, 1:250) (KIR2DS2); no binding (tested: supernatant 1:5, 1:25, 1:250) (KIR2DS1); no binding (tested: supernatant 1:5, 1:25, 1:250) (KIR3DL1). B1: no binding (tested: supernatant 1:5, 1:25, 1:250) (KIR3DS1); no binding (tested: supernatant 1:5, 1:25, 1:250) (KIR2DS3); no binding (tested: supernatant 1:5, 1:25, 1:250) (KIR2DL2). B1: no binding (tested: supernatant 1:5, 1:25, 1:250) (KIR2DL1); no binding (tested: supernatant 1:5, 1:25, 1:250) (KIR2DL3).

B2: no binding (tested: 20 ug/ml) [1].

B3: no binding (tested: 20 ug/ml) [1].

B4: no binding (tested: 20 ug/ml) [1].

B5: no binding (tested: 20 ug/ml) [1].
